Measurements: patent publication US20130101602A1 (ARGOS THERAPEUTICS, published 2013)

How the values were obtained:
recombinant human IFN-αG [1] = molecular target: T1, recombinant human IFN-αG (human, UniProt P01569 24-189); assay: cell-based or functional assay
[2] = molecular target: T2, recombinant human IFN-αJ1 (human, UniProt P01567 24-189); assay: cell-based or functional assay
recombinant human IFN-αF [3] = molecular target: T3, recombinant human IFN-αF (human, UniProt P01568 24-189); assay: cell-based or functional assay
[4] = molecular target: various IFN-α subtypes (those inhibited in the reporter gene assay of FIG. 5); assay: cell-based or functional assay
[5] = molecular target: T4, recombinant human IFN-α4a (human, UniProt P05014 24-189); assay: cell-based or functional assay
recombinant human IFN-αC [6] = molecular target: T5, recombinant human IFN-αC (human, UniProt P01566 24-189); assay: cell-based or functional assay
recombinant human IFN-αG [7] = molecular target: T1, recombinant human IFN-αG; assay: cell-based or functional assay; remark: listed apart in the source
recombinant human IFN-αC [8] = molecular target: T5, recombinant human IFN-αC; assay: cell-based or functional assay; remark: listed apart in the source
recombinant human IFN-αF [9] = molecular target: T3, recombinant human IFN-αF; assay: cell-based or functional assay; remark: listed apart in the source
recombinant human IFN-αF [10] = molecular target: T3, recombinant human IFN-αF; assay: cell-based or functional assay; remark: listed apart in the source
recombinant human IFN-α1 = molecular target: T6, recombinant human IFN-α1 (human, UniProt P0DY56 24-189); assay: SPR (Biacore), mAb immobilised, IFN-α injected
T6 construct: both come from gene 1; also called hIFN-α1; subtype 1 (Ala114)
Description: (§1) The purified monoclonal antibodies were immobilized in individual flow cells on a CM5 type sensor chip. Immobilizations were performed using a standard amine coupling procedure, aiming for an immobilization level of 1000 Resonance Units (RU).
(§2) HBS-EP pH 7.4 (10 mM HEPES, 150 mM NaCl, 3 mM EDTA and 0.005% Polysorbate P20) was used as running buffer, and diluent for the recombinant IFN-α's. Association (injection) was 4 min., followed by a 12 to 30 min. dissociation period. Flow rate was 50 μl/min. Experiments were performed at 25° C. Detection in all flow cells simultaneously. Flow cell #1 contained no immobilized antibody, and was used for subtraction of background and bulk.
(§3) Data was inspected for mass-transport limitations prior to calculation of the kinetic parameters.

recombinant human IFN-αG [11] = molecular target: T1, recombinant human IFN-αG; assay: SPR (Biacore), mAb amine-coupled on CM5 chip, IFN-α injected, 1:1 Langmuir fit
Description: as §1, §2, §3

[12] = molecular target: T7, recombinant human IFN-αH2 (human, UniProt P01570 24-189); assay: as above
T7 construct: also called hIFN-αH2
Description: as §1, §2, §3

recombinant human IFN-αI = molecular target: T8, recombinant human IFN-αI (human, UniProt P01571 24-189); assay: as above
T8 construct: also called hIFN-αI
Description: as §1, §2, §3

[13] = molecular target: T2, recombinant human IFN-αJ1; assay: as above
Description: as §1, §2, §3

[14] = molecular target: T9, recombinant human IFN-αWA (human, UniProt P05015 24-189); assay: as above
T9 construct: also called hIFN-αWA
Description: as §1, §2, §3

[15] = molecular target: T4, recombinant human IFN-α4a; assay: as above
Description: as §1, §2, §3

recombinant human IFN-αC [16] = molecular target: T5, recombinant human IFN-αC; assay: as above
Description: as §1, §2, §3

recombinant human IFN-αK = molecular target: T10, recombinant human IFN-αK (human, UniProt P05013 24-189); assay: as above
T10 construct: also called hIFN-αK
Description: as §1, §2, §3

[17] = molecular target: recombinant human IFN-αA (human) (UniProt P01563); assay: cell-based or functional assay
[18] = molecular target: recombinant human IFN-αA (human) (UniProt P01563); assay: SPR (Biacore), KD normalised to hzACO-1
[19] = molecular target: recombinant human IFN-αA (human) (UniProt P01563); assay: SPR (Biacore), mAb amine-coupled on CM5 chip, IFN-α injected, 1:1 Langmuir fit

T1 sequence (P01569 24-189): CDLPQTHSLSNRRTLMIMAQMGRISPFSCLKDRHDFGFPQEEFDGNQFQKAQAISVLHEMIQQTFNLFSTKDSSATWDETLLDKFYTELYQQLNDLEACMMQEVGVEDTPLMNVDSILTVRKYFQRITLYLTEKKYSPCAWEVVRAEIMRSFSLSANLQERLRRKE
T5 sequence (P01566 24-189): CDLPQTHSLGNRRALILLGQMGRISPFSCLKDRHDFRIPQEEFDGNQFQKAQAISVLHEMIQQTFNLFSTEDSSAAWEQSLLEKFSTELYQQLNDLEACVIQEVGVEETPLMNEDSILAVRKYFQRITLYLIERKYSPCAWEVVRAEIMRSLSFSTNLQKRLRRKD
Sequence of recombinant human IFN-αA (human) (P01563 other isoform, or with tags, fused parts or gaps): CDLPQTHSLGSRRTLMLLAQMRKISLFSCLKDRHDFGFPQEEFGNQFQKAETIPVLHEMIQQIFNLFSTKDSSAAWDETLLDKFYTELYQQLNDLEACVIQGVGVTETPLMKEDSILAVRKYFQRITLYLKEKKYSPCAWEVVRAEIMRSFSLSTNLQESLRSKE
T3 sequence (P01568 24-189): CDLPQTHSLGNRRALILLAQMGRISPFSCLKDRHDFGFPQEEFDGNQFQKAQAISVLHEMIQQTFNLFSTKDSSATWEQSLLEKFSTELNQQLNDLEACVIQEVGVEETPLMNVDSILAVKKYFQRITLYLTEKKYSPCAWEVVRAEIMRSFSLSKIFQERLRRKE
T2 sequence (P01567 24-189 limits assumed): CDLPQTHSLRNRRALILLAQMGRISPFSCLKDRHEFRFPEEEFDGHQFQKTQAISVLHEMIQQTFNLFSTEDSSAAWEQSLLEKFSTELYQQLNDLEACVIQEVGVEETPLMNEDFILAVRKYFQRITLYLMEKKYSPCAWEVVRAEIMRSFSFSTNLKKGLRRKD
T4 sequence (P05014 24-189): as the sequence (P01566 24-189) above, with G19A, P26H, R37G, I38F, Q40E, N46H, I132T, R134K counted along it
T10 sequence (P05013 24-189): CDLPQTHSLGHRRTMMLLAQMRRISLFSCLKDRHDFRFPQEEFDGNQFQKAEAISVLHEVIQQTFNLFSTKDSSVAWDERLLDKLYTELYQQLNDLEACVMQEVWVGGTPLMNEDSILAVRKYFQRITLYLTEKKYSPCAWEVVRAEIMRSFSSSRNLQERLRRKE
T7 sequence (P01570 24-189): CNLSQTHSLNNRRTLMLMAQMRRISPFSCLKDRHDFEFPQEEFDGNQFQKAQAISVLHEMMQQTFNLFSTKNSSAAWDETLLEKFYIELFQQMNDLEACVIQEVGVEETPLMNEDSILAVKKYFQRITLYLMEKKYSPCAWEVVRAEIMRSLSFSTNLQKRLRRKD
T6 sequence (P0DY56 entry or part of it limits assumed): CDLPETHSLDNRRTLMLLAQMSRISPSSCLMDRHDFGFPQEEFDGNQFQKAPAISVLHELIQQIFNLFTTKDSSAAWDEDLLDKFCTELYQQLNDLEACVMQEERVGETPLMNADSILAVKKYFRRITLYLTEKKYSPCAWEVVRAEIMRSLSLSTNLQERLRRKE
T8 sequence (P01571 24-189): as the sequence (P01566 24-189) above, with G19A, R37G, I38L, A51T, D95N, V106M, I132T, R134K, R161I counted along it
T9 sequence (P05015 24-189): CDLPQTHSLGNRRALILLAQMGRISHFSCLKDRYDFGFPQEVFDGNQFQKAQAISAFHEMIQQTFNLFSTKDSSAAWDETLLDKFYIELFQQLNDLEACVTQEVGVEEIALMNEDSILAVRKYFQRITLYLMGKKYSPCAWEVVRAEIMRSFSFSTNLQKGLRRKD

B1: ACO-1 (murine anti-IFN-α antibody, recombinant) (antibody, V domains shown)
VH: QVQLQQPGAELVKPGASVKLSCKASGYTFTNYWMHWVKQRPGQGLEWIGEINPSHGRTIYNENFKSKATLTVDKSSITAFMQLSSLTSEDSAVYFCARGGLGPAWFAYWGQGTLVTVSA
VL: QIVLTQSPAIMSASPGEKVTLTCSAGSSVDSSYLYWYQQKPGSSPKLWIYSTSNLASGVPARFSGSGSGTSYSLTISSMEAEDAASYFCHQWSSYPFTFGSGTKLEIKR
B1 was tested, and the “IC50 value relative to hzACO-1 (RG assay)” value (recombinant human IFN-αG [1]) was 0.56, the “IC50 value relative to hzACO-1 (RG assay)” value [2] was 0.58 and the “IC50 value relative to hzACO-1 (RG assay)” value (recombinant human IFN-αF [3]) was 0.82.

B2: hzACO-1 (humanized ACO-1) (antibody, human IgG4, V domains shown)
VH: QVQLVQSGAEVKKPGASVKVSCKASGYTFTNYWMHWVRQAPGQGLEWMGEINPSHGRTIYAQKFQGRVTMTRDTSTSTVYMELSSLRSEDTAVYYCARGGLGPAWFAYWGQGTLVTVSS
VL: EIVLTQSPATLSLSPGERATLSCSAGSSVDSSYLYWYQQKPGQAPRLLIYSTSNLASGIPARFSGSGSGTDFTLTISSLEPEDFAVYYCHQWSSYPFTFGQGTKLEIKR
notes: also called hzACO-1 IgG4; hzACO-1-IgG4
In the case of B2, the IC50, reporter gene (Mx promoter-luciferase) assay in 93D7 cells [4] is reported as 28 to 314 ng/mL, the “IC50 (read off the curve) (CPE assay)” value [5] is reported as roughly 60 ng/mL and the “IC50 (read off the curve) (CPE assay)” value (recombinant human IFN-αC [6]) is reported as roughly 8 ng/mL. For the same binder, the “IC50 (read off the curve) (reporter gene assay)” value (from here on “IC50 … (reporter gene assay)”) (recombinant human IFN-αG [7]) was roughly 0.05 µg/mL, the “IC50 … (reporter gene assay)” value (recombinant human IFN-αC [8]) was roughly 0.03 µg/mL and the “IC50 … (reporter gene assay)” value (recombinant human IFN-αF [9]) was roughly 0.3 µg/mL. For the same binder, the “IC50 (reporter gene assay, Mx promoter-luciferase in 93D7 cells)” value (recombinant human IFN-αF [10]) was 0.277 µg/mL, the binding result (recombinant human IFN-α1) was “no binding” and the Kd (recombinant human IFN-αG [11]) was 0.92 nM. For the same binder, the Kd [12] was 3.21 nM, the Kd (recombinant human IFN-αI) was 2.81 nM and the Kd [13] was 4.81 nM. The Kd [14] was 4.1 nM, the Kd [15] was 3.45 nM and the Kd (recombinant human IFN-αC [16]) was 1.05 nM. For the same binder, the Kd (recombinant human IFN-αK) was 1.44 nM.

B3: hzACO-1-kabat CDRH2 (antibody, V domains shown)
VH: QVQLVQSGAEVKKPGASVKVSCKASGYTFTNYWMHWVRQAPGQGLEWMGEINPSHGRTIYNENFKSRVTMTRDTSTSTVYMELSSLRSEDTAVYYCARGGLGPAWFAYWGQGTLVTVSS
VL: EIVLTQSPATLSLSPGERATLSCSAGSSVDSSYLYWYQQKPGQAPRLLIYSTSNLASGIPARFSGSGSGTDFTLTISSLEPEDFAVYYCHQWSSYPFTFGQGTKLEIK
For B3, the IC50 value relative to hzACO-1 (RG assay) [17] was 0.95, the “IC50 value relative to hzACO-1 (RG assay)” value (recombinant human IFN-αG [1]) was 0.78 and the “IC50 value relative to hzACO-1 (RG assay)” value [2] was 1.15. For the same binder, the “IC50 value relative to hzACO-1 (RG assay)” value (recombinant human IFN-αF [3]) was 0.95, the KD mAb/KD hzACO-1 [18] was 0.9 and the koff [19] was 0.000341 s⁻¹. For the same binder, the kon [19] was 205000 M⁻¹ s⁻¹.

B4: hzACO-1-A93V (antibody, human IgG4, name in Kabat numbering, V domains shown)
VH: QVQLVQSGAEVKKPGASVKVSCKASGYTFTNYWMHWVRQAPGQGLEWMGEINPSHGRTIYAQKFQGRVTMTRDTSTSTVYMELSSLRSEDTAVYYCVRGGLGPAWFAYWGQGTLVTVSS
VL: EIVLTQSPATLSLSPGERATLSCSAGSSVDSSYLYWYQQKPGQAPRLLIYSTSNLASGIPARFSGSGSGTDFTLTISSLEPEDFAVYYCHQWSSYPFTFGQGTKLEIKR
With B4 the “IC50 (reporter gene assay, Mx promoter-luciferase in 93D7 cells)” value (recombinant human IFN-αF [10]) was 0.156 µg/mL.
